# B1: irisin: secreted cleaved form of FNDC5; recombinant human/mouse irisin with C-terminal his tag produced in HEK293 cells (protein)
# chain: DSPSAPVNVTVRHLKANSAVVSWDVLEDEVVIGFAISQQKKDVRMLRFIQEVNTTTRSCALWDLEEDTEYIVHVQAISIQGQSPASEPVLFKTPREAEKMASKNKDEVTMKE
# modifications: left off: small tags and cut ends
# notes: secreted cleaved form of FNDC5; recombinant human/mouse irisin with C-terminal his tag produced in HEK293 cells
# Columns and labels:
# Test in all cases: Crosslinking/co-immunoprecipitation/mass spectrometry (TMT quantitative proteomics) to identify irisin receptors
# Assay type in all cases: binding
# [1] = target: T1, MLO-Y4 cell surface proteins (Mus musculus, UniProt P62880); details: co-precipitated protein Gnb2 (GBB2_MOUSE)
# T1 construct: endogenous in cells; host or cells: MLO-Y4
# Description: (§1) MLO-Y4 cells were seeded on 30×150 mm type-I collagen coated dishes as described in cell culture experiment. At 60% cell density, medium was switched to FreeStyle™ 293 Expression medium. After 4 hours incubation, the cells were chilled on ice for 10 minutes, followed by treatment of 10 nM his-tag irisin or his-tag adipsin for 20 minutes. The cells were then incubated with 1.5 mM DTSSP for 30 minutes on ice to do cross-linking, after washing with 15 ml cold PBS twice. The cross-linking was quenched by addition of a final concentration of 20 mM Tris-pH 7.5. The cells were then harvested and homogenized in 1 ml RIPA buffer containing proteaseinhibitor cocktailand phosphatase-inhibitor cocktail. Whole-cell lysates were homogenized by 10 times passages through a 22G needle fitted to a 3 ml syringe. Homogenized samples were rotated gently in cold room for 20 minutes followed by 15,000×g centrifugation for 10 minutes. After addition of a final concentration of 10 mM imidazole, supernatants were incubated with 100 μl Ni-NTA agarose for 1 hour. After centrifugation at 500×g for 1 minute, the supernatants were aspirated and 1 ml cold RIPA buffer containing 10 mM imidazole were added to the agarose. After 10 minutes rotation in cold room, the supernatants were aspirated and 1 ml cold RIPA buffer containing 30 mM imidazole were added to the agarose. After repeating the washing 3 times, 0.8 ml RIPA buffer containing 250 mM imidazole was added and the agarose was gently rotated in a cold room for 20 minutes. After centrifugation at 1000×g for 2 minutes, the supernatants were transferred to 1.5 ml tube and incubated with 100 μl 0.2% sodium deoxycholate and 100 μl 10% trichloroacetic acid in ice for 1 hour. After centrifugation at 12,000×g for 10 minutes at 4° C., the supernatants were removed and 1 ml cold acetone was added to the pellets followed by vortexing for 10 seconds. After one more washing with cold acetone, the pellets were dried at 37° C., and 39 μl PBS and 13 μl 4×NuPAGE LDS were added to the pellets with a final concentration of 5 mM DTT. Solubilized proteins were incubated at 65° C. for 20 minutes followed by incubation with a final concentration of 14 mM iodoacetamide for 45 minutes in the dark. 38 μl samples were loaded to 4-12% gradient SDS-PAGE for separation followed by Coomassie Blue staining. The gels were submitted to quantitative proteomics.
# (§2) For in-gel digestions, gels were stained with Coomassie Blue and were excised into 8 equal segments for control and irisin lanes. Gel pieces were destained and dehydrated with 100% acetonitrile, vacuumed dried, and digested in 25 mM HEPES (pH 8.5) with 500 ng sequencing grade trypsin (Promega) and incubated for an overnight at 37° C. (Shevchenko et al. (1996) Anal. Chem. 68:850-858). Digests were treated with 1% formic acid and purified using C18 Stage-Tips as previously described (Rappsilber et al. (2007) Nat. Protoc. 2:1896-1906). Peptides were eluted with 70% acetonitrile and 1% formic acid, then dried using a speedvac. Isobaric labeling of digested peptides was accomplished using 6-plex tandem mass tag (TMT) reagents (Thermo Fisher Scientific, Rockford, Ill.). Reagents, 5.0 mg, were dissolved in 252 μl acetonitrile (ACN) and 5 μl of the solution was added to the digested peptides dissolved in 25 μl of 200 mM HEPES, pH 8.5. After 1 hour at room temperature, the reaction was quenched by adding 1 μl of 5% hydroxylamine. Labeled peptides were combined and acidified prior to C18 Stage-Tips desalting.
# (§3) All LC-MS/MS experiments were performed on an Orbitrap Fusion™ Lumos mass spectrometer (Thermo Fisher Scientific, San Jose, Calif., USA) coupled with a Proxeon EASY-nLC™ 1200 LC pump (Thermo Fisher Scientific). Peptides were separated on a 100 μm inner diameter microcapillary column packed with 35 cm of Accucore™ C18 resin (1.8 μm, 100 Å, Thermo Fisher Scientific). […]
# [2] = target: T2, MLO-Y4 cell surface proteins (Mus musculus, UniProt P97360); details: co-precipitated protein Etv6 (ETV6_MOUSE)
# T2 construct: endogenous in cells; host or cells: MLO-Y4
# T2 sequence (P97360 1-485): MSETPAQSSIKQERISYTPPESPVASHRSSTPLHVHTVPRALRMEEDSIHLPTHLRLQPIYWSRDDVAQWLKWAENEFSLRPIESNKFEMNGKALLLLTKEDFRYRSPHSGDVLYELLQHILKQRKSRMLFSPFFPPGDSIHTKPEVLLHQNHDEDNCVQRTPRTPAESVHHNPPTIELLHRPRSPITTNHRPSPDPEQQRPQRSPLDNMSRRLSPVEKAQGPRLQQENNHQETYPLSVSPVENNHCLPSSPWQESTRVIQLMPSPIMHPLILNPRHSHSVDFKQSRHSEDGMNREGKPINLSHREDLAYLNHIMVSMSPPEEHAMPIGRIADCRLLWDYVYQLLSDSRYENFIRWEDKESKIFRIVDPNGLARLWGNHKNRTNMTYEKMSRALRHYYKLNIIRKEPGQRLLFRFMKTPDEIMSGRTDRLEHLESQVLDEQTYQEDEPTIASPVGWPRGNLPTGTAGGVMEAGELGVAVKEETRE
# Description: as §1, §2, §3
# [3] = target: T3, MLO-Y4 cell surface proteins (Mus musculus, UniProt Q99LC5); details: co-precipitated protein Etfa (ETFA_MOUSE)
# T3 construct: endogenous in cells; host or cells: MLO-Y4
# T3 sequence (Q99LC5 20-333): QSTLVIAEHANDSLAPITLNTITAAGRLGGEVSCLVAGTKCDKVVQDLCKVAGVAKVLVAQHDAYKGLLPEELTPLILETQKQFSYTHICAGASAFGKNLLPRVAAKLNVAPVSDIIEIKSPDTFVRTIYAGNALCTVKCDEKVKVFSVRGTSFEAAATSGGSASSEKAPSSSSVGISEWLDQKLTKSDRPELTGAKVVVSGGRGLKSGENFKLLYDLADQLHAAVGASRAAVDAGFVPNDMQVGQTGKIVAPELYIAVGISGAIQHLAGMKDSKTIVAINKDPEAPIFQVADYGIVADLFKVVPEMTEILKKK
# Description: as §1, §2, §3
# [4] = target: T4, MLO-Y4 cell surface proteins (Mus musculus, UniProt Q9WTP6); details: co-precipitated protein Ak2 (KAD2_MOUSE)
# T4 construct: endogenous in cells; host or cells: MLO-Y4
# Description: as §1, §2, §3
# T1 sequence (P62880 whole entry): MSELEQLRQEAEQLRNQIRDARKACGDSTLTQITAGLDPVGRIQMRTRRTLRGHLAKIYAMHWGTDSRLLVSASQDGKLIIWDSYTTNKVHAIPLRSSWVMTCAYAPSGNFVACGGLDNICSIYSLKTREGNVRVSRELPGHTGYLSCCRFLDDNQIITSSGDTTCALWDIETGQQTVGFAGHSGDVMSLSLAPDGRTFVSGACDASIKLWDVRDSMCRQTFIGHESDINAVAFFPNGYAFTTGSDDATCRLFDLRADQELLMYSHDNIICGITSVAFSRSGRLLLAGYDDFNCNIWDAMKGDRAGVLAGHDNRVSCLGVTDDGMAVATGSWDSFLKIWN
molecule,measurement,setting,value
B1,TMT signal-to-noise ratio,[1],165.95
same,irisin/adipsin TMT signal-to-noise ratio,[1],0.563
same,TMT signal-to-noise ratio,[2],74.6472
same,irisin/adipsin TMT signal-to-noise ratio,[2],0.544
same,TMT signal-to-noise ratio,[3],44.9816
same,irisin/adipsin TMT signal-to-noise ratio,[3],0.561
same,TMT signal-to-noise ratio,[4],61.9776
same,irisin/adipsin TMT signal-to-noise ratio,[4],0.546

# Source: patent US20210063414A1, “METHODS FOR PREVENTING AND/OR TREATING BONE LOSS CONDITIONS BY MODULATING IRISIN” (Dana-Farber Cancer Institute, Inc., priority 2018, published 2021)
